Measured values as given in paper PMC7924733 (Journal of molecular biology, 2021).
Positions count from the first letter of the chain named. Names and notes keep the numbering of the source.

B1: His6-Atg16 L71C (natural protein, S. cerevisiae, UniProt Q03818 1-150, looked up)
chain: MGNFIITERKKAKEERSNPQTDSMDDLLIRRLTDRNDKEAHLNELFQDNSGAIGGNIVSHDDALLNTLAICQKELKSKEQEIRRLKEVIALKNKNTERLNDELISGTIENNVLQQKLSDLKKEHSQLVARWLKKTEKETEAMNSEIDGTK
B2: Atg16 L71C L120C (natural protein, S. cerevisiae, UniProt Q03818 1-150, looked up)
chain: B1 chain with L120C
B3: Atg16 L71C L85C L99C L120C (natural protein, S. cerevisiae, UniProt Q03818 1-150, looked up)
chain: B1 chain with L85C, L99C, L120C

Molecular target: the molecule itself
Experiment: cross-linking

Stoichiometry N, 2:
B1
B2
B3
